How the values were obtained:
[1] = rats; cited from earlier work
[2] = In vivo comparison with an extracellular contrast medium: blood concentrations of Gd and Dy in rats with ligated renal vessels; settings: i.v.; for diffusion in the interstitium: compound 1 and compound 2 compared in the same animals; for time until equilibrium is reached (constant blood level): examination period 15 minutes
Description: FIG. 1 is a graph of the measured blood concentrations of Gd (compound 1) and Dy (compound 2) in rats (n=5) with ligated renal vessels, as described in the above Example for an In Vivo Comparison with an Extracellular Contrast Medium.
The suitability of the compound described in Example 1k) as blood-pool-agent is shown in the following test.
As test animals, five male (Schering-SPF) rats that are 300–350 g in weight are used. Before the test, the abdomen is opened, the intestines are shifted and then the renal vessels (arterial+venous) of both sides are ligated through the rear peritoneum with a surgical needle. Then, the abdominal cavity is closed again. 0.3 ml (respectively 50 mmol/L) of the following contrast medium solution per animal is then administered intravenously: mixture of 1 part each of the compound of Example 1k), named compound 1 below, and the dysprosium complex of 10-(1-hydroxymethyl-2,3-dihydroxypropyl)-1,4,7-tris(carboxymethyl)-1,4,7,10-tetraazacyclododecane, produced analogously to the instructions in European Patent Application EP 448 191, named compound 2 below. Blood samples are taken with a catheter in the common carotid artery at the following times: 15, 30, 45, 60, 90 seconds, 3, 5, 10, 15 minutes p.i. In the blood samples obtained, the concentrations of gadolinium (Gd) and dysprosium (Dy) are measured with the aid of atomic emission spectrometry (ICP-AES) in each case in a parallel manner. The portion of the injected contrast medium of compound 1 (Gd) and compound 2 (Dy., comparison substance), remaining in the blood space, can be compared in the same animals by the different marking. Since a renal excretion is not possible, the decrease of the blood concentration can be attributed only to a distribution in the blood spaces and to the diffusion in the interstitial tissue.

[3] = MR angiography on rabbits; assay type: in vivo; settings: i.v. 50 μmol of Gd/kg of body weight, 1.5 tesla
Method: The compound cited under Example 1k was studied on rabbits (CH. R. Kisslegg, ≈4 kg of body weight) in an MR angiography experiment (Ganzkörper [whole-Body] MRT System Siemens Vision, 1.5 tesla, FISP 3D; TR: 400 ms; TE 15 ms; flip angle: 45°; coronal).
In a precontrast picture only one to two major vessels are visible (e.g., abdominal aorta) in relatively poor contrast (signal intensity SI of these vessels against the background).

Compound | excretion route [1] | diffusion in the interstitium [2] | time until equilibrium is reached (constant blood level) [2] | behaviour as blood-pool contrast medium [2] | blood concentrations ([2]; compound 1 versus compound 2, up to 15 minutes p.i.) | blood vessels visible after administration of contrast medium [3] | contrast (SI of the vessels/SI of the background) ([3]; versus precontrast picture)
polylysine-GdDTPA | excreted unchanged by glomerular filtration through the kidneys | – | – | – | – | – | –
O=C([O-])CN1CCN(CC(=O)[O-])CCN(C(CO)C(O)CO)CCN(CC(=O)[O-])CC1.[Dy+3] (stereo not drawn) [compound 2, dysprosium complex of 10-(1-hydroxymethyl-2,3-dihydroxypropyl)-1,4,7-tris(carboxymethyl)-1,4,7,10-tetraazacyclododecane, reference compound] | – | diffuses quickly into the interstitial spaces of the body | 3–5 minutes p.i. | – | – | – | –
24-mer-Gd-complex of N-(5-DO3A-yl-4-oxo-3-azahexanoyl)-cascade polyamide based on N,N,N′,N′,N″,N″-hexakis[2-(trilysylamino)-ethyl]-trimesic acid triamide [Example 1k] | – | considerably slowed-down | no equilibrium is reached | behaves as a blood-pool contrast medium | constantly higher | a wide variety of minor blood vessels and capillaries | marked increase

From patent publication US7211241B2, “Cascade polymer complexes, process for their production and pharmaceutical agents containing said complexes” (Schering Aktiengesellschaft, priority 1995, dated 2007)
